Results as given in the supplement of paper PMC10567573.

B1: HSP90AB1 (parent)
chain: YHTSQSGDEMTSLSEYVSRMKETQ

Variants of: B1
Test: protein stability index of a GFP-peptide fusion (GPS, HEK-293T) (PSI 1-6); higher = more stable
Settings: c terminus: a fixed tail appended
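Note: lentivirally expressed fusions sorted by FACS into six bins by GFP to DsRed ratio, PSI derived from sequencing read proportions per bin multiplied by bin number.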

Compared with YHTSQSGDEMTSLLEYVSRMKETQ [S14L], YHTSQSGDEMTSLKEYVSRMKETQ [S14K] is higher in protein stability index: 2.65 for the first, 3.5 for the second.

Going from YHTSQSGDEMTSLREYVSRMKETQ [S14R] to YHTSQSGDEMTSLQEYVSRMKETQ [S14Q], the protein stability index falls from 3.57 to 3.54.

Compared with YHTSQSGDEMTSLYEYVSRMKETQ [S14Y], YHTSQSGDEMTSLMEYVSRMKETQ [S14M] is higher in protein stability index: 3.11 for the first, 3.25 for the second.

First: YHTSQSGDEMTSLDEYVSRMKETQ [S14D]
Second: YHTSQSGDEMTSLFEYVSRMKETQ [S14F]
The protein stability index of the first is lower: 2.96 for the first, 3.05 for the second.

Compared with YHTSQSGDEMTSLCEYVSRMKETQ [S14C], YHTSQSGDEMTSLWEYVSRMKETQ [S14W] is lower in protein stability index: 3.44 for the first, 1.81 for the second.

Going from YHTSQSGDEMTSLVEYVSRMKETQ [S14V] to YHTSQSGDEMTSLTEYVSRMKETQ [S14T], the protein stability index rises from 3.37 to 3.71.

Compared with YHTSQSGDEMTSLNEYVSRMKETQ [S14N], YHTSQSGDEMTSLPEYVSRMKETQ [S14P] is higher in protein stability index: 3.24 for the first, 3.74 for the second.

Compared with YHTSQSGDEMTSLGEYVSRMKETQ [S14G], YHTSQSGDEMTSLEEYVSRMKETQ [S14E] is higher in protein stability index: 3.78 for the first, 4.31 for the second.

Going from YHTSQSGDEMTSLAEYVSRMKETQ [S14A] to YHTSQSGDEMTELSEYVSRMKETQ [S12E], the protein stability index rises from 3.66 to 4.28.

Going from YHTSQSGDEMTWLSEYVSRMKETQ [S12W] to YHTSQSGDEMTKLSEYVSRMKETQ [S12K], the protein stability index rises from 2.6 to 3.12.

First: YHTSQSGDEMTQLSEYVSRMKETQ [S12Q]
Second: YHTSQSGDEMTGLSEYVSRMKETQ [S12G]
The protein stability index of the first is lower: 3.36 for the first, 3.75 for the second.

Compared with YHTSQSGDEMTFLSEYVSRMKETQ [S12F], YHTSQSGDEMTTLSEYVSRMKETQ [S12T] is higher in protein stability index: 2.98 for the first, 3.88 for the second.

Compared with YHTSQSGDEMTYLSEYVSRMKETQ [S12Y], YHTSQSGDEMTCLSEYVSRMKETQ [S12C] is higher in protein stability index: 2.81 for the first, 2.87 for the second.

Compared with YHTSQSGDEMTHLSEYVSRMKETQ [S12H], YHTSQSGDEMTALSEYVSRMKETQ [S12A] is lower in protein stability index: 3.52 for the first, 3.21 for the second.

Going from YHTSQSGDEMTNLSEYVSRMKETQ [S12N] to YHTSQSGDEMTDLSEYVSRMKETQ [S12D], the protein stability index rises from 3.64 to 4.14.

First: YHTSQSGDEMTVLSEYVSRMKETQ [S12V]
Second: YHTSQSGDEMTPLSEYVSRMKETQ [S12P]
The protein stability index of the first is lower: 2.99 for the first, 3.52 for the second.

Compared with YHTSQSGDEMTILSEYVSRMKETQ [S12I], YHTSQSGDEMTLLSEYVSRMKETQ [S12L] is lower in protein stability index: 2.92 for the first, 2.49 for the second.

Going from YHTSQSGDEMESLSEYVSRMKETQ [T11E] to YHTSQSGDEMMSLSEYVSRMKETQ [T11M], the protein stability index falls from 3.9 to 3.07.

Going from YHTSQSGDEMFSLSEYVSRMKETQ [T11F] to YHTSQSGDEMLSLSEYVSRMKETQ [T11L], the protein stability index rises from 2.78 to 3.35.

Compared with YHTSQSGDEMPSLSEYVSRMKETQ [T11P], YHTSQSGDEMRSLSEYVSRMKETQ [T11R] is lower in protein stability index: 3.57 for the first, 3.53 for the second.

Going from YHTSQSGDEMSSLSEYVSRMKETQ [T11S] to YHTSQSGDEMYSLSEYVSRMKETQ [T11Y], the protein stability index falls from 3.62 to 2.74.

First: YHTSQSGDEMWSLSEYVSRMKETQ [T11W]
Second: YHTSQSGDEMNSLSEYVSRMKETQ [T11N]
The protein stability index of the first is lower: 2.01 for the first, 3.56 for the second.

First: YHTSQSGDEMISLSEYVSRMKETQ [T11I]
Second: YHTSQSGDEMHSLSEYVSRMKETQ [T11H]
The protein stability index of the first is lower: 3.12 for the first, 3.64 for the second.

Going from YHTSQSGDEMGSLSEYVSRMKETQ [T11G] to YHTSQSGDEMKSLSEYVSRMKETQ [T11K], the protein stability index rises from 3.77 to 4.58.

Going from YHTSQSGDEMVSLSEYVSRMKETQ [T11V] to YHTSQSGDEMTSISEYVSRMKETQ [L13I], the protein stability index falls from 3.68 to 3.5.

Compared with YHTSQSGDEMTSRSEYVSRMKETQ [L13R], YHTSQSGDEMTSASEYVSRMKETQ [L13A] is higher in protein stability index: 4.21 for the first, 4.37 for the second.

Going from YHTSQSGDEMTSESEYVSRMKETQ [L13E] to YHTSQSGDEMTSTSEYVSRMKETQ [L13T], the protein stability index falls from 4.62 to 4.25.

Compared with YHTSQSGDEMTSYSEYVSRMKETQ [L13Y], YHTSQSGDEMTSSSEYVSRMKETQ [L13S] is higher in protein stability index: 3.38 for the first, 3.68 for the second.

Compared with YHTSQSGDEMTSCSEYVSRMKETQ [L13C], YHTSQSGDEMTSDSEYVSRMKETQ [L13D] is higher in protein stability index: 3.52 for the first, 4.11 for the second.

Compared with YHTSQSGDEMTSNSEYVSRMKETQ [L13N], YHTSQSGDEMTSPSEYVSRMKETQ [L13P] is lower in protein stability index: 4.34 for the first, 3.74 for the second.

First: YHTSQSGDEMTSKSEYVSRMKETQ [L13K]
Second: YHTSQSGDEMTSQSEYVSRMKETQ [L13Q]
The protein stability index of the first is lower: 3.82 for the first, 4.59 for the second.

First: YHTSQSGDEMTSHSEYVSRMKETQ [L13H]
Second: YHTSQSGDEMTSGSEYVSRMKETQ [L13G]
The protein stability index of the first is lower: 3.88 for the first, 4.27 for the second.

Going from YHTSQSGDEMTSMSEYVSRMKETQ [L13M] to YHTSQSGDEMTSFSEYVSRMKETQ [L13F], the protein stability index falls from 4.04 to 2.18.

Going from YHTSQSGDEMTSVSEYVSRMKETQ [L13V] to YHTSQSGDEMTSLSPYVSRMKETQ [E15P], the protein stability index falls from 3.32 to 1.87.

Compared with YHTSQSGDEMTSLSTYVSRMKETQ [E15T], YHTSQSGDEMTSLSFYVSRMKETQ [E15F] is lower in protein stability index: 2.79 for the first, 1.99 for the second.

Going from YHTSQSGDEMTSLSIYVSRMKETQ [E15I] to YHTSQSGDEMTSLSAYVSRMKETQ [E15A], the protein stability index rises from 2.37 to 2.6.

Compared with YHTSQSGDEMTSLSSYVSRMKETQ [E15S], YHTSQSGDEMTSLSLYVSRMKETQ [E15L] is lower in protein stability index: 2.87 for the first, 1.99 for the second.

Going from YHTSQSGDEMTSLSRYVSRMKETQ [E15R] to YHTSQSGDEMTSLSWYVSRMKETQ [E15W], the protein stability index falls from 2.85 to 1.48.

Compared with YHTSQSGDEMTSLSQYVSRMKETQ [E15Q], YHTSQSGDEMTSLSVYVSRMKETQ [E15V] is lower in protein stability index: 3.15 for the first, 1.89 for the second.

Compared with YHTSQSGDEMTSLSDYVSRMKETQ [E15D], YHTSQSGDEMTSLSHYVSRMKETQ [E15H] is lower in protein stability index: 3.02 for the first, 2.96 for the second.

Going from YHTSQSGDEMTSLSKYVSRMKETQ [E15K] to YHTSQSGDEMTSLSYYVSRMKETQ [E15Y], the protein stability index falls from 3.48 to 2.65.

First: YHTSQSGDEMTSLSNYVSRMKETQ [E15N]
Second: YHTSQSGDEMTSLSGYVSRMKETQ [E15G]
The protein stability index of the first is higher: 3.77 for the first, 2.68 for the second.

Going from YHTSQSGDEMTSLSEHVSRMKETQ [Y16H] to YHTSQSGDEMTSLSEIVSRMKETQ [Y16I], the protein stability index falls from 4.1 to 3.09.

Compared with YHTSQSGDEMTSLSEEVSRMKETQ [Y16E], YHTSQSGDEMTSLSELVSRMKETQ [Y16L] is lower in protein stability index: 4.37 for the first, 3.41 for the second.

Going from YHTSQSGDEMTSLSEAVSRMKETQ [Y16A] to YHTSQSGDEMTSLSEDVSRMKETQ [Y16D], the protein stability index rises from 4.17 to 4.74.

First: YHTSQSGDEMTSLSECVSRMKETQ [Y16C]
Second: YHTSQSGDEMTSLSEKVSRMKETQ [Y16K]
The protein stability index of the first is higher: 4.16 for the first, 3.53 for the second.

Going from YHTSQSGDEMTSLSEGVSRMKETQ [Y16G] to YHTSQSGDEMTSLSEFVSRMKETQ [Y16F], the protein stability index falls from 4 to 3.49.
